From article PMC8531034, “Structural insights into RNA polymerase III-mediated transcription termination through trapping poly-deoxythymidine” (Nature Communications, 2021)

T1: RPC1, subunit of human RNA polymerase III (human, UniProt O14802 1-1390)
T1 construct: RPC1, largest subunit of human RNA polymerase III (catalytic core); Subunit of the 17-subunit Pol III complex; source: Expi293F cells, transiently expressed, purified to homogeneity as part of the recombinant human Pol III complex
T1 sequence: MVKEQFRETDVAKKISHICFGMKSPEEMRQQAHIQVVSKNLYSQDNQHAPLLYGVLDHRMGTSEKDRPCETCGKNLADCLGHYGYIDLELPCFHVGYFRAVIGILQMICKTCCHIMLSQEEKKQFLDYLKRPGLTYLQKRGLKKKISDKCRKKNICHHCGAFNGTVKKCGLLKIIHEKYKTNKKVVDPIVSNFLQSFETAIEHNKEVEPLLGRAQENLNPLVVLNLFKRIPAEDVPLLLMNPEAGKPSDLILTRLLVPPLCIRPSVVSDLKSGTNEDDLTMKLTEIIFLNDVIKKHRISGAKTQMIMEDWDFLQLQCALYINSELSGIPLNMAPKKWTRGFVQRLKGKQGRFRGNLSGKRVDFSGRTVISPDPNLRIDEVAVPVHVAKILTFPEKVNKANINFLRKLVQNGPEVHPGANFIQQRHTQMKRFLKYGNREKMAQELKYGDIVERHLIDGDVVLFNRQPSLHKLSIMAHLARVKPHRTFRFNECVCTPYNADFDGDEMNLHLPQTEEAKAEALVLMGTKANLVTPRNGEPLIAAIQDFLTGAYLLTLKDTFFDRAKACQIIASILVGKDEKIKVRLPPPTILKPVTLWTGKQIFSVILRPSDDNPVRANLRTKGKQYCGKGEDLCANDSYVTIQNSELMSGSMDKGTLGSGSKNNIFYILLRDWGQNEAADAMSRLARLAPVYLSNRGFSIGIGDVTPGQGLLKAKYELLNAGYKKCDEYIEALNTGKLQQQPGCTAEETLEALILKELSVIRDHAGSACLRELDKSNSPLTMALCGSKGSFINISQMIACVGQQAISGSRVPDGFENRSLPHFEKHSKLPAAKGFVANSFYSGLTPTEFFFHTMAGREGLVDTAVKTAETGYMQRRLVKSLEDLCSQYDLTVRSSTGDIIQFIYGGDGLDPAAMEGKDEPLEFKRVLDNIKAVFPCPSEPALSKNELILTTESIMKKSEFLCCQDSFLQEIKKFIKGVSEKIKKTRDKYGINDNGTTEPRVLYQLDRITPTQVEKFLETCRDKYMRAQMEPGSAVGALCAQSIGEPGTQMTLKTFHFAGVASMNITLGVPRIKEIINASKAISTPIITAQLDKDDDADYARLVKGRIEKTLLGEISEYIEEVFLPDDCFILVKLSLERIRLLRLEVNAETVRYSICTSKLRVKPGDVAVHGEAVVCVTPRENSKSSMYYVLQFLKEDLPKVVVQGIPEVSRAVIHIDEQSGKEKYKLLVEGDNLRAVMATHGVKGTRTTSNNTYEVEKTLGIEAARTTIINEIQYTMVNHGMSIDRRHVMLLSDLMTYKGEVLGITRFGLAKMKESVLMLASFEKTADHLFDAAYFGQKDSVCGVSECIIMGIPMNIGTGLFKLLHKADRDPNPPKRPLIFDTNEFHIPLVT

B1: RPC2, subunit of human RNA polymerase III (natural protein)
chain: MDVLAEEFGNLTPEQLAAPIPTVEEKWRLLPAFLKVKGLVKQHIDSFNYFINVEIKKIMKANEKVTSDADPMWYLKYLNIYVGLPDVEESFNVTRPVSPHECRLRDMTYSAPITVDIEYTRGSQRIIRNALPIGRMPIMLRSSNCVLTGKTPAEFAKLNECPLDPGGYFIVKGVEKVILIQEQLSKNRIIVEADRKGAVGASVTSSTHEKKSRTNMAVKQGRFYLRHNTLSEDIPIVIIFKAMGVESDQEIVQMIGTEEHVMAAFGPSLEECQKAQIFTQMQALKYIGNKVRRQRMWGGGPKKTKIEEARELLASTILTHVPVKEFNFRAKCIYTAVMVRRVILAQGDNKVDDRDYYGNKRLELAGQLLSLLFEDLFKKFNSEMKKIADQVIPKQRAAQFDVVKHMRQDQITNGMVNAISTGNWSLKRFKMDRQGVTQVLSRLSYISALGMMTRISSQFEKTRKVSGPRSLQPSQWGMLCPSDTPEGEACGLVKNLALMTHITTDMEDGPIVKLASNLGVEDVNLLCGEELSYPNVFLVFLNGNILGVIRDHKKLVNTFRLMRRAGYINEFVSISTNLTDRCVYISSDGGRLCRPYIIVKKQKPAVTNKHMEELAQGYRNFEDFLHESLVEYLDVNEENDCNIALYEHTINKDTTHLEIEPFTLLGVCAGLIPYPHHNQSPRNTYQCAMGKQAMGTIGYNQRNRIDTLMYLLAYPQKPMVKTKTIELIEFEKLPAGQNATVAVMSYSGYDIEDALVLNKASLDRGFGRCLVYKNAKCTLKRYTNQTFDKVMGPMLDAATRKPIWRHEILDADGICSPGEKVENKQVLVNKSMPTVTQIPLEGSNVPQQPQYKDVPITYKGATDSYIEKVMISSNAEDAFLIKMLLRQTRRPEIGDKFSSRHGQKGVCGLIVPQEDMPFCDSGICPDIIMNPHGFPSRMTVGKLIELLAGKAGVLDGRFHYGTAFGGSKVKDVCEDLVRHGYNYLGKDYVTSGITGEPLEAYIYFGPVYYQKLKHMVLDKMHARARGPRAVLTRQPTEGRSRDGGLRLGEMERDCLIGYGASMLLLERLMISSDAFEVDVCGQCGLLGYSGWCHYCKSSCHVSSLRIPYACKLLFQELQSMNIIPRLKLSKYNE
notes: RPC2, second largest subunit of human RNA polymerase III (catalytic core; lobe, protrusion, fork loops 1 and 2); Subunit of the 17-subunit Pol III complex; source: Expi293F cells, transiently expressed, purified to homogeneity as part of the recombinant human Pol III complex

Legend:
[1] = target: B1; test: cryo-EM structure; recombinant human Pol III (17 subunits) assembled with a DNA-RNA scaffold with seven dT in the non-template strand, 1:2 molar ratio, dialysed in 20 mM HEPES pH 8.0, 150 mM NaCl, 2 mM MgCl2, 2 mM DTT; 3D classification gave two states, PTC (3.6 Å, core 3.3 Å) and EC (3.6 Å); conditions: both partners purified
[2] = target: T1, RPC1, subunit of human RNA polymerase …; test: as above; conditions: both partners purified

Row | binding result [1] | binding result [2] | Binder
1 | binds | – | RPC4-RPC5 dimer module of human RNA polymerase III (complex, RPC4 of human RNA polymerase III (dimer module); RPC5 of human RNA polymerase III (dimer module; holds the hotspot); the mammal-specific C-terminal domain was not seen in the PTC map; Named throughout as a heterodimer; Part of the 17-subunit Pol III complex; also called RPC4-5; C53-C37 (yeast equivalent); source: Expi293F cells, transiently expressed, purified to homogeneity as part of the …) chain 1: MSEGNAAGEPSTPGGPRPLLTGARGLIGRRPAPPLTPGRLPSIRSRDLTLGGVKKKTFTPNIISRKIKEEPKEEVTVKKEKRERDRDRQREGHGRGRGRPEVIQSHSIFEQGPAEMMKKKGNWDKTVDVSDMGPSHIINIKKEKRETDEETKQILRMLEKDDFLDDPGLRNDTRNMPVQLPLAHSGWLFKEENDEPDVKPWLAGPKEEDMEVDIPAVKVKEEPRDEEEEAKMKAPPKAARKTPGLPKDVSVAELLRELSLTKEEELLFLQLPDTLPGQPPTQDIKPIKTEVQGEDGQVVLIKQEKDREAKLAENACTLADLTEGQVGKLLIRKSGRVQLLLGKVTLDVTMGTACSFLQELVSVGLGDSRTGEMTVLGHVKHKLVCSPDFESLLDHKHR chain 2: MANEEDDPVVQEIDVYLAKSLAEKLYLFQYPVRPASMTYDDIPHLSAKIKPKQQKVELEMAIDTLNPNYCRSKGEQIALNVDGACADETSTYSSKLMDKQTFCSSQTTSNTSRYAAALYRQGELHLTPLHGILQLRPSFSYLDKADAKHREREAANEAGDSSQDEAEDDVKQITVRFSRPESEQARQRRVQSYEFLQKKHAEEPWVHLHYYGLRDSRSEHERQYLLCPGSSGVENTELVKSPSEYLMMLMPPSQEEEKDKPVAPSNVLSMAQLRTLPLADQIKILMKNVKVMPFANLMSLLGPSIDSVAVLRGIQKVAMLVQGNWVVKSDILYPKDSSSPHSGVPAEVLCRGRDFVMWKFTQSRWVVRKEVATVTKLCAEDVKDFLEHMAVVRINKGWEFILPYDGEFIKKHPDVVQRQHMLWTGIQAKLEKVYNLVKETMPKKPDAQSGPAGLVCGDQRIQVAKTKAQQNHALLERELQRRKEQLRVPAVPPGVRIKEEPVSEEGEEDEEQEAEEEPMDTSPSGLHSKLANGLPLGRAAGTDSFNGHPPQGCASTPVARELKAFVEATFQRQFVLTLSELKRLFNLHLASLPPGHTLFSGISDRMLQDTVLAAGCKQILVPFPPQTAASPDEQKVFALWESGDMSDQHRQVLLEIFSKNYRVRRNMIQSRLTQECGEDLSKQEVDKVLKDCCVSYGGMWYLKGTVQS
2 | – | binds | B1
3 | binds | – | RPC10, subunit of human RNA polymerase III (natural protein, RPC10 of human RNA polymerase III, with N-terminal ribbon domain (N-ribbon) and C-terminal ribbon domain (C-ribbon); Subunit of the 17-subunit Pol III complex; also called C11 (yeast equivalent); source: Expi293F cells, transiently expressed, purified to homogeneity as part of the recombinant human Pol III complex) not shown
